What follows are substances tested against purified recombinant human insulin receptor (either with or without exon 11) (human) (UniProt P06213) (assay: SPA competition with A14Tyr[125I]-human insulin on purified recombinant human insulin receptor).

Substance | Relative insulin receptor binding affinity (%) (% of the affinity of human insulin)
A14E, B16H, B22K, B25H, B29R, desB30 human insulin (from UniProt P01308 90-110; P01308 25-53) (ligand) | 4.61
A14E, B16H, B25H, desB27, desB28, desB29, desB30 human insulin (from UniProt P01308 90-110; P01308 25-50) (ligand) | 1.9
A14K, B25H, B29R human insulin (from UniProt P01308 90-110; P01308 25-54) (ligand) | 11
A14E, B10E, B25H, B26G, B27G, B28G, desB30 human insulin (from UniProt P01308 90-110; P01308 25-53) (ligand) | 144
A8H, A14E, A22K, B25H, B29R, desB30 human insulin (from UniProt P01308 90-110; P01308 25-53) (ligand) | 67.1
A8H, A14E, B10E, B25H, B26G, B27G,B28G, desB30 human insulin (from UniProt P01308 90-110; P01308 25-53) (ligand) | 136
A8H, A14E, B16H, B25H, desB30 human insulin (from UniProt P01308 90-110; P01308 25-53) (ligand) | 24
A14P, B25H, desB30 human insulin (from UniProt P01308 90-110; P01308 25-53) (ligand) | 14
A14E, B25H, B26E, B27E, desB30 human insulin (from UniProt P01308 90-110; P01308 25-53) (ligand) | 16.5
A14E, A22K, B25H, B27E, B29R, desB30 human insulin (from UniProt P01308 90-110; P01308 25-53) (ligand) | 24.6
A14E, A22K, B25H, B26G, B27G, B28G, B29R, desB30 human insulin (from UniProt P01308 90-110; P01308 25-53) (ligand) | 59.2
A14E, B25H, B29R, desB30 human insulin (from UniProt P01308 90-110; P01308 25-53) (ligand) | 26.1

Other lines, results leading:

Relative insulin receptor binding affinity (%) (% of the affinity of human insulin) | Substance
27 | A8H, A14H, B16H, B25H, desB30 human insulin (from UniProt P01308 90-110; P01308 25-53) (ligand)
60.7 | A14E, B22K, B25H, B26G, B27G, B28G, B29R, desB30 human insulin (from UniProt P01308 90-110; P01308 25-53) (ligand)
81.1 | A8H, A14E, B22K, B25H, B29R, desB30 human insulin (from UniProt P01308 90-110; P01308 25-53) (ligand)
18.4 | A14E, B25H, B28G, desB30 human insulin (from UniProt P01308 90-110; P01308 25-53) (ligand)
23 | A14E, A15E, B25H, desB30 human insulin (from UniProt P01308 90-110; P01308 25-53) (ligand)
0.9 | A14E, A22K, B16E, B25H, B29R, desB30 human insulin (from UniProt P01308 90-110; P01308 25-53) (ligand)
16.5 | A14E, B25H, B27G, B28G, desB30 human insulin (from UniProt P01308 90-110; P01308 25-53) (ligand)
79 | A14E, B27K, desB28, desB29, desB30 human insulin (from UniProt P01308 90-110; P01308 25-51) (ligand)
69.5 | A14E, B25H, B26G, B27G, B28K, desB30 human insulin (from UniProt P01308 90-110; P01308 25-53) (ligand)
7.61 | A14E, A22K, B16H, B25H, B29R, desB30 human insulin (from UniProt P01308 90-110; P01308 25-53) (ligand)
13.1 | A14E, A21G, B25H, desB30 human insulin (from UniProt P01308 90-110; P01308 25-53) (ligand)
2 | A14H, B16H, B25H, desB27, desB28, desB29, desB30 Human insulin (from UniProt P01308 90-110; P01308 25-50) (ligand)
0.59 | A14E, B16E, B22K, B25H, B29R, desB30 human insulin (from UniProt P01308 90-110; P01308 25-53) (ligand)
22.7 | A14E, B25H, B26G, B27E, B28G, desB30 human insulin (from UniProt P01308 90-110; P01308 25-53) (ligand)

Reference: US20110092419A1
